A protein production outcome set (Wang et al. 2014)

Assay: label from the status in PepcDB records

MFCTFFEKHHRKWDILLEKSTGVMEAMKVTSEEKEQLSTAIDRMNEGLDAFIQLYNESEIDEPLIQLDDDTAELMKQARDMYGQEKLNEKLNTIIKQILSISVSEEGEKELKSNRIFISWLRWPLFIRIGVIILCLILLFGQIIYILEPKQFTSVFEGIWWAVVTVSTVGYGDYVPHTPLGQAAGILLILSGASFVTAYFATLSAAAFSRQHRYIEGKVAYKGRDHIILIGWNEKTNRLLKDLQLGAPSKTVVLIDESLTEGPLIENVHFIRGHAADDGTLKRANITEAESVMITADQYKSETDADMLSVLTLLSVKGLNPLAYCIVEILTDRFVTNAERAGANQIIGTSEFISRAMLQHYQVKLRRLNSRTESS
protein production: failed

MFDFLTHDMLAVVWFFLWCVIWGVYFIADSFSLGAGLLTPFIAADKVQRIQIQSSVGPFWGGNEVWLILAAGGTFAAFPLVFSKMFTFLYLPMMLLLIGLIARGISVEYLHKDDNPRIQQFLMWGWFAGSLLVSLVLGVAFANFFKGLEIASGGVYKGTLPGLFGPYALISGVLFVLMSVTSGALWINVKTEGAVAAKAGDLAKKSALLVLIFALVYLAYSFAGVEGFATNYSSMPVLYLLPVLAVGGAVLSVFFAKKGRAFPAFCSNLLAFLFIVEGGLASIYPYMLKSSISPEYGIDIFEAASSHMTLSVMLGGALVFVPIVIIYQLWAYTLFREKITETEQVEY
protein production: failed

MFDNDRLLLRVLLFGLLGASLWVLAPFWSALFWAAVLAFASWPLMRMLTRLLGGRESLAAGLLTLGWIVLVALPLIWLGFGLADNVRSLMELLKNLQVEGLPPPPSWMAGVPLIGDRLIGWWDSIDQQGVAFFYVLKPYVGEVGNWLLARSAKIGGGILELVLSLILIFFFYRDGPRLESIVHRALERLIGNRAEHYRDLVAGTVQRVVNGVIGTAAAQALLAWIGFMIAGVPGAMLLGLLTFACSLLMVPPLVWGPATAWLFFKGDYGHGVFLGLWGFFIISGVDNILKPYLISRGGNLPLVVVLLGVFGGLLAFGFMGLFLGPILLAVAYNLLSDWIASTPRTPPGEGRGPDA
protein production: failed

MFDNLQRKFLNLIGIEIEEEDKPQESTKAKEENVKPKHETPKVVTIGKANQTEVTVYNLKLFDEVVKVCDALRENKIVVFNLEQVAEDHIQRIIDFVSGAVYVLDAKIHKVSKKIFVVVPRSIDLEVDEQLKEEFRTKGVFAWLK
protein production: failed

MFEISRSRAKAMRPFLALATATVMMLSLAACSSSDNSSTNAQGNTDVAVGGQRFSTADQETAKLGSDAQPGQFPRTVVHAAGTTEITTKPERVVVLDTGELDSVLSLGITPVGMTTTKGANPVPSYLADKVKDVERVGTINELNIEAIAALKPDLIIGSQLRADKLYPQLSDIAPTVFSIRPGSPWKENFLLVGEALGMEKEAEEKLNEYADRVAELKNNVPQNTEVSLVRFMPNKLRLYGNKSLIGVVLADAGLARPEKQNVDDLAVEISPENIDQAAGSVIFYTSYGKPDATGETAVVEGPAWKNLEAVAAGKAHRVNDDVWFLGLGPTGAMEIVSDLHDYLLKK
protein production: failed

MFFKQFYDKHLSQASYLIGCQKTGEAMIIDPIRDLSSYIRVADEEGLTITHAAETHIHADFASGIRDVAIKLNASIYVSGESDDTLGYKNMPNQTHFVQHNDDIYVGNIKLKVLHTPGHTPESISFLLTDEGAGAQVPMGLFSGDFIFVGDIGRPDLLEKAVKVEGSSEIGAKQMFKSIESIKDLPNYIQIWPGHGAGSPCGKSLGAIPTSTLGYEKQTNWAFSENNEATFIDKLISDQPAPPHHFAQMKKINQFGMNLYQPYTVYPATNTNRLTFDLRSKEAYHGGHIEGTINIPYDKNFINQIGWYLNYDQEINLIGEYHLVSKATHTLQLIGYDDVAGYQLPQSKIQTRSIHSEDITGNESHILDVRNDNEWNNGHLSQAVHVPHGKLLETDLPFNRNDVIYVHCQSGIRSSIAIGILEHKGYHNIINVNEGYKDIHLSLEHHHHHH
protein production: failed

MFFTDWEGPWILTDFALELCMAVFNNARFFSNLSEYDDYLAYEVRREGYEAGYTLKLLTPFLAAAGVKNRDVERIAELSAKFVPDAEKAMATLQERWTPVVISTSYTQYLRRTASMIGVRGELHGTEVDFDSIAVPEGLREELLSIIDVIASLSGEELFRKLDELFSRSEVRKIVESVKAVGAGEKAKIMRGYCESKGIDFPVVVGDSISDYKMFEAARGLGGVAIAFNGNEYALKHADVAIISPTAMSEAKVIELFMERKERAFEVLSAVSIPETEIYIMENSDFGEVLEKSKRMRVRLRGLAGELG
protein production: not failed

MFGFLRSTTSNDNTLSDTQVNESYRYWRLHIMIGMYIGYAGFYFTRKTFNYAAPAMITDLGLDKGDLGLIGTLFYISYGLSKFLSGTISDRSNPRYFMGLGLIATGLINIAFGFSSSLAAFISLWVLNAWFQGWGWPSCSKLLTTWYSRSERGFRWAIWNTAHNIGGALIPILVGYLTLHYSWREGFILPGIIGVAIGLIVCWRLRDKPTTMGLPSVGKWRNDPLELAQENHGQGLSYREILKTYVFSNKYIWLLAFSYVLVYIVRTAVNDWGNLYLTEEHNYSLINANAALSLFEIGGFVGSLVAGWGSDKLFGGNRGPMNILFAIGIFLSVSALWLMPLTNFVFQAAGLFSVGFFVFGPQMLIGMAAAECSHKDSAGAATGFVGLFAYMGAALSGYPLAVILETYGWTGFFITISTCAAVIGLLLLPFLQAQSPQKPIETRVRL
protein production: failed

MFGTPSSSPSFGTPSSTPAFGTSSPAFGTPSATPAFGTPSNPSFSSGGFGSSLFSSPFSSQQPQQQQQQQQQQQPSSLFQQQPSSNFGFQSPFNNTAQQQQQTPFPNAQLTTQMAPVAPIPYSLADRDVQAIIEAYKEDPTNPKYAFQHLLFSVTEPQYRVKPAAVSDIMWAEAMSKLEGMDSTERERLWPQLVQGFKDLSQRLKLQDEVLVSDRDRIKTTQSNVKMLQRHLQASTFPSIERLRQKEQSLQRRMLRVMRIIEGLEGKGFRLPLTKGEAELSEKLTAITRQVKGPGAELSRRVQSLQTISRAQANSIAAGSSLYLPGSTKIDEQSLIDMQEVLQQETEAIGRLGNVLKRDMRDMEIMVAEDTEMALDS
protein production: failed

MFHVSFRYIFGLPPLILVLLPVASSDCDIEGKDGKQYESVLMVSIDQLLDSMKEIGSNCLNNEFNFFKRHICDANKEGMFLFRAARKLRQFLKMNSTGDFDLHLLKVSEGTTILLNCTGQVKGRKPAALGEAQPTKSLEENKSLKEQKKLNDLCFLKRLLQEIKTCWNKILMGTKEH
protein production: failed

MFIGGAIISFLFLFGYMWKEAHSNRIRHVTLSFPHFPDNGPPLTIFFISDIHRRSVSCRMLETVKGKADLVVIGGDLAEKGVPAARVRENVRRLQTVAPVYFVWGNNDDEVDYDLQSLLEEERVYVLKNKAEVWEHGGVPIALIGVGDVSRKEADIARALEHVPPESFRILACHNPAIIARLEDEQHISLVLSGHTHGGQIRLFSFGLYEKGGLKWHGNTALFTSNGYGTTGVPLRLGAPAETHLIKIVPGKLATEKLEHHHHHH
protein production: not failed

MFIGIVSLFLTVLVYLGAKKVYQRFPRVYTSPLLVTPAVLVGLLLLVNVPYESYNLGGGLLTDMLQPATVAFAIPLYKYFPVLKKYAVEIILNVAVGSCIAIISTALIAKWLHLGTGLIDSLVPRSVTTPIAVHVSEMIGGMPAVTAVFVILTALLGTVIGPMVIRYFRIDNEIARGVLLGTSAHGAGTSKAFELSSVSGTISSVSMILAAIMTLWPAPFCFHLCKKLSSRGQFFLCASPY
protein production: failed

MFILSAQRLSGTQVFRRLAEGCTGYSVSSGCRQRRRCCPGAPQRPRRVRVNALQLQSGLADPLDPKSEAEVREHLRSNSPAERALGINYARYLDESTRYDILLEMMEDTDPQVRYAAVTQLATVGSHDRQRTLKAVRKILWNTEEDASVRAGAADVLGGLRFHEAFPDLEKLFHESKDWVVRFSIIAALGEMGVREAFPILVEALHANKEPLVQLAAIGALGELGDERARVYLEPLVNSSDASIVERARFALDALDARGSERT
protein production: not failed

MFITLLLFFLSAAIIYFACEFFVNGVEWVGHRFKLGATATGTVLAAFGTALPESAVTFMAVVFGTTPEQKDIGVGAAMGGPLVLATLAYAVVGLTLARTRRAGSSQVEAAINADQRRLARDQAWFMGVFVFKVALGLLAFAWKPWLGLLFLAVYGLYVKRELTREEECLDCEDLEPLKLRPRDPSPSLFWACAQTVLALAVIALASHVFVRQIELLGLAMGASPHVAALLLAPVATELPEIMNALIWVRQGKERLALANISGAMMIQATIPSAMMIQATIPSALGIFLTPWLLDAPLLAAGGFTLAAILLLWLRFRRAAMSVPALSAVGGLYALFAGYLGWHFYA
protein production: failed

MFKDGSLIPYLTAGDPDKQSTLNFLLALDEYAGAIELGIPFSDPIADGKTIQESHYRALKNGFKLREAFWIVKEFRRHSSTPIVLMTYYNPIYRAGVRNFLAEAKASGVDGILVVDLPVFHAKEFTEIAREEGIKTVFLAAPNTPAERLKVIDDMTTGFVYLVSLYGTTGAREEIPKTAYDLLRRAKRICRNKVAVGFGVSKREHVVSLLKEGANGVVVGSALVKIIGEKGREATEFLKKKVEELLGI
protein production: not failed

MFKEVGEPNFPKLEEEVLAFWKREKIFQKSVENRKGGPRYTVYEGPPTANGLPHVGHAQARSYKDLFPRYKTMRGYYAPRRAGWDTHGLPVELEVEKKLGLKSKREIEAYGIERFNQACRESVFTYEKEWEAFTERIAYWVDLENAYATLEPTYIESIWWSLKNLFDRGLLYRDHKVVPYCPRCGTPLSSHEVALGYKEIQDPSVYVRFPLKEPKKLGLEKASLLIWTTTPWTLPGNVAAAVHPEYTYAAFQVGDEALILEEGLGRKLLGEGTPVLKTFPGKALEGLPYTPPYPQALEKGYFVVLADYVSQEDGTGIVHQAPAFGAEDLETARVYGLPLLKTVDEEGKLLVEPFKGLYFREANRAILRDLRGRGLLFKEESYLHSYPHCWRCSTPLMYYATESWFIKNTLFKDELIRKNQEIHWVPPHIKEGRYGEWLKNLVDWALSRNRYWGTPLPIWVCQACGKEEAIGSFQELKARATKPLPEPFDPHRPYVDQVELACACGGTMRRVPYVIDVWYDSGAMPFASLHYPFEHEEVFRESFPADFIAEGIDQTRGWFNFLHQLGVMLFGSIAFKNVICHGLILYEMGQKMSKSKGNVVDPWDIIREFGADALRWYIYVSAPPEADRRFGPNLVRETVRDYFLTLWNVYSFFVTYANLDRPDLKNPPPPEKRPEMDRWLLARMQDLIQRVTEALEAYDPTTSARALRDFVVEDLSQWYVRRNRRRFWKNEDALDREAAYATLYEALVLVATLAAPFTPFLAEVLWQNLVRSVRPEAKESVHLADWPEADPALADEALVAQMRAVLKVVDLARAARAKSGVKTRTPLPLLLVTAPTALEREGLKRFAHEIAEELNVKEVRVLEPGEEILSYRVLPNLKLLGRKYGKLVPKIREALQRERERAAALALKGEAIPLEVEGEALTLLPEEVLLEAEAPKGYQALEKDGYVAALKVEVTEALRMEGLARDLIRLLQQARKDMGLKVSDRIRVGYEAEGPYLEALKRHGPWIAEEVLATAFGEGLFGGFEARVEDEEGKAVFHLARAE
protein production: not failed

MFKGTNNASDFTLMSFSDRQAKNHEPRLKARRRGCLIVLADRIIDALYHPAGPCQGADKARQSAIQHFRLDVPEGQCHRLRHLLDMRPAMTQTQPAPACSLPCSILLLAGGRGSRMGGQDKGLVAWRGQPLIAHVQAVVRPLSDDLIISCNRNAERYRAYADRLVEDGQKDFPGPLAGVLAGLATARHPWLLVLACDAPQIDAALIQALLDARGNDTRPVMVQQAGQWQPMFSLIPTALLGDLRQAWDNGERSLLRALAAHGLRPLPCAADDPRLSNFNTPELLSEAGPKPLA
protein production: failed

MFKKHNFHFNWLPLILISTVSIMLIFNIRSILSEGIRPFLSVLTPFFWAFGIAYLINPLMMLIEKKFKLKRAFSLMISYILVIICVYILIAIIVPTIFDSLSELFSNLSEYASSAESWINNTLASMNVPLDLNHLNTSATEFISKTSTLLSNIVGSLLTQTIKITSSVVKFVFGFIISIYMLMDKETLIEGCKKIIIAVMPSEKSSELFISFMAEAHNIFSRFIIGKIIDSLIIGVLCYIGLLLMGTQYAVLISFIVGLTNMIPYFGPFIGMIPAFLLTLIVQPSMAIWVLLFIFILQQFDGWYLGPKILGDQVGVSPLFIIFAVTVGGGIFGVLGMFLSVPIIALIKIYTEKFIEYRLENKKQNFSE
protein production: failed
